Key:
[1] = target: T1, human NPR3 (counter target) (human, UniProt P17342 27-481, limits assumed); experiment: ELISA, 1 µM IgG; design: unit not given here
T1 construct: Pannings used hNPR3-hFc; also called hNPR3; hNPR3-hFc
T1 sequence (looked up): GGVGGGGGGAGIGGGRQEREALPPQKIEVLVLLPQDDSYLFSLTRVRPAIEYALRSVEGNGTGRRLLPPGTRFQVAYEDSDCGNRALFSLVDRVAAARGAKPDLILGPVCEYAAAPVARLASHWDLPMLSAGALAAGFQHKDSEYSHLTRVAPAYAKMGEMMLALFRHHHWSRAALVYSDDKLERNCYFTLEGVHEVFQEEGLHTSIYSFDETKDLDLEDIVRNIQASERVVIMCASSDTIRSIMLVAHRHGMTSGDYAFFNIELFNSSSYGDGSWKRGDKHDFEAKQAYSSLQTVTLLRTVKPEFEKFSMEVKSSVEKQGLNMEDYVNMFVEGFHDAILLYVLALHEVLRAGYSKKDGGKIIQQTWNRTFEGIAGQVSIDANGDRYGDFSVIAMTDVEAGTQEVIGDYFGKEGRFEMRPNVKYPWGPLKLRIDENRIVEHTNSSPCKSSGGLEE

rNPR1-ANP complex = target: T2, rNPR1-ANP complex (rat, UniProt P01160 124-151 (human entry), limits assumed); experiment: ELISA, 1 µM IgG; design: unit not given here
T2 construct: rNPR1 antigen in the presence of ANP; also called rNPR1 + 100 nM ANP
T2 sequence: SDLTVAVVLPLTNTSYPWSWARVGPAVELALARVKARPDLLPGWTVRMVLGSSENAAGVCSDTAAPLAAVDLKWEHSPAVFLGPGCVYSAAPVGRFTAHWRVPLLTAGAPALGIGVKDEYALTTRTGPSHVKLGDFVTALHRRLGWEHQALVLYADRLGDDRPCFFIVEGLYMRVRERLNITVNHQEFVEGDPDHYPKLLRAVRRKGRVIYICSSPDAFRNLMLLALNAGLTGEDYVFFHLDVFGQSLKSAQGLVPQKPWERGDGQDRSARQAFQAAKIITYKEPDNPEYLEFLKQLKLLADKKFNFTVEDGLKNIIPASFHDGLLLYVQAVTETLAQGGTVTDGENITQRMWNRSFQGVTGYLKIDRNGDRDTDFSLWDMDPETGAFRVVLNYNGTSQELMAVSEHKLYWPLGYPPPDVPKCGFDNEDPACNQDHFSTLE
T2 sequence (peptide): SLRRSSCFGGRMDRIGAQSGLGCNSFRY

hNPR1-ANP complex = target: T3, hNPR1-ANP complex (human, UniProt P01160 124-151, limits assumed); experiment: ELISA, 1 µM IgG; design: unit not given here
T3 construct: hNPR1 antigen in the presence of ANP; also called hNPR1 + 100 nM ANP
T3 sequence: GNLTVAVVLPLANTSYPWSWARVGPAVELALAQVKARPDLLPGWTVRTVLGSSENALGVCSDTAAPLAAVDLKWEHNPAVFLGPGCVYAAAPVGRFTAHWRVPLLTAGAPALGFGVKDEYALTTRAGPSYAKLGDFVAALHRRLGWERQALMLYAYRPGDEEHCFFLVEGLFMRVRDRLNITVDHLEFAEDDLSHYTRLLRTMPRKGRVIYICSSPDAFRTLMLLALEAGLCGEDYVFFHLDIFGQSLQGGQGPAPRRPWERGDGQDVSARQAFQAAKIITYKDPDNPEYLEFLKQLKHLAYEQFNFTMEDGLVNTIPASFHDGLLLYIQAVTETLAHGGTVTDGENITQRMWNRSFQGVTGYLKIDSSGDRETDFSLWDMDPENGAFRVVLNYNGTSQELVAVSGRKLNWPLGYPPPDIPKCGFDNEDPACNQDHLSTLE
T3 sequence (peptide): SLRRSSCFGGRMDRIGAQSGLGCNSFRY

[2] = target: T4, human NPR3 in the presence of ANP (human, UniProt P17342 27-481; P01160 124-151, limits assumed); experiment: ELISA, 1 µM IgG; design: unit not given here
T4 construct: also called hNPR3 + 100 nM ANP
T4 sequence (looked up): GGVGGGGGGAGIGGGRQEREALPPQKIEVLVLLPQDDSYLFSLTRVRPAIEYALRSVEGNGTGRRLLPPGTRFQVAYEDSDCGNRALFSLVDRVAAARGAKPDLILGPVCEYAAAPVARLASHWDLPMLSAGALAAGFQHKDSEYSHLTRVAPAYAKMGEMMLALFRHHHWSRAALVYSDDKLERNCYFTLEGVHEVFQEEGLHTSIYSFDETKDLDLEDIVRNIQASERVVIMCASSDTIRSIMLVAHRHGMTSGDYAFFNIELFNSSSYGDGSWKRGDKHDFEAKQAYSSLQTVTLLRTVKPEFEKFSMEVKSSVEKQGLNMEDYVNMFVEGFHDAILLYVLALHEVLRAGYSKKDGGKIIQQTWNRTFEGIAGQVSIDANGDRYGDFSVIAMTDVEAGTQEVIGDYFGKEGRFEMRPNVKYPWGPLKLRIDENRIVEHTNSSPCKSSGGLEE
T4 sequence (peptide, looked up): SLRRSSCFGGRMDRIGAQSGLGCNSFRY

[3] = target: T5, human Natriuretic Peptide Receptor 1 (hNPR1) (human, UniProt P16066 33-473, limits assumed); experiment: ELISA, 1 µM IgG; design: unit not given here
T5 construct: pannings used NPR1-hFc; also called NPR1-hFc
T5 sequence: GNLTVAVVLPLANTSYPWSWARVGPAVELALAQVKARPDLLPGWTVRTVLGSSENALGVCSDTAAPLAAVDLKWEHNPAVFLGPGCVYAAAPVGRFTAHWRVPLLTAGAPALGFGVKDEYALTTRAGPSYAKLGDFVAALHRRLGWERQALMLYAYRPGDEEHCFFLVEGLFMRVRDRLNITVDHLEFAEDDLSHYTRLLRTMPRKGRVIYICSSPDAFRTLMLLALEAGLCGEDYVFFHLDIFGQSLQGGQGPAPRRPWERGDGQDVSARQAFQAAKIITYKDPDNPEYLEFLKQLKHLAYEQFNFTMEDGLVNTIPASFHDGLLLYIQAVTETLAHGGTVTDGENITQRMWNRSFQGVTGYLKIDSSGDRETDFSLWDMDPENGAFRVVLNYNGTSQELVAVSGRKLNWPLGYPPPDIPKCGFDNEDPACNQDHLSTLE

rat NPR1 (rNPR1) = target: T6, rat NPR1 (rNPR1) (rat, UniProt P18910 29-469, limits assumed); experiment: ELISA, 1 µM IgG; design: unit not given here
T6 construct: Soluble antigen
T6 sequence: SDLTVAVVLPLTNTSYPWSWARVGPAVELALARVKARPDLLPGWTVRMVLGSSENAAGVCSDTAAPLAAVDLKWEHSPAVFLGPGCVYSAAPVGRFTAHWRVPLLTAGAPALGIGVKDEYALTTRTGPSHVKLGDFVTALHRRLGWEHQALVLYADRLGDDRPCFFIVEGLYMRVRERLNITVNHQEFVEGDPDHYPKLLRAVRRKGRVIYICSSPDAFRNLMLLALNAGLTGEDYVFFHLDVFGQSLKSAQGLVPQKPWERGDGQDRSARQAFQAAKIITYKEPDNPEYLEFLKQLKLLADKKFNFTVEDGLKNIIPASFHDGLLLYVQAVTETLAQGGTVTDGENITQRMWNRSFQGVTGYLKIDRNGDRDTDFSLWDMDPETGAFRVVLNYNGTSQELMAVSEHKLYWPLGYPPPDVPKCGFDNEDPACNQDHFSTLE

[4] = target: T7, human NPR1 on CHO-K1 cells (human, UniProt P16066 33-1061); experiment: flow cytometry, hNPR1 CHO-K1 cells, IgG
T7 construct: also called hNPR1 CHO K1; human NPR1 expressing CHO-K1 cells
T7 sequence: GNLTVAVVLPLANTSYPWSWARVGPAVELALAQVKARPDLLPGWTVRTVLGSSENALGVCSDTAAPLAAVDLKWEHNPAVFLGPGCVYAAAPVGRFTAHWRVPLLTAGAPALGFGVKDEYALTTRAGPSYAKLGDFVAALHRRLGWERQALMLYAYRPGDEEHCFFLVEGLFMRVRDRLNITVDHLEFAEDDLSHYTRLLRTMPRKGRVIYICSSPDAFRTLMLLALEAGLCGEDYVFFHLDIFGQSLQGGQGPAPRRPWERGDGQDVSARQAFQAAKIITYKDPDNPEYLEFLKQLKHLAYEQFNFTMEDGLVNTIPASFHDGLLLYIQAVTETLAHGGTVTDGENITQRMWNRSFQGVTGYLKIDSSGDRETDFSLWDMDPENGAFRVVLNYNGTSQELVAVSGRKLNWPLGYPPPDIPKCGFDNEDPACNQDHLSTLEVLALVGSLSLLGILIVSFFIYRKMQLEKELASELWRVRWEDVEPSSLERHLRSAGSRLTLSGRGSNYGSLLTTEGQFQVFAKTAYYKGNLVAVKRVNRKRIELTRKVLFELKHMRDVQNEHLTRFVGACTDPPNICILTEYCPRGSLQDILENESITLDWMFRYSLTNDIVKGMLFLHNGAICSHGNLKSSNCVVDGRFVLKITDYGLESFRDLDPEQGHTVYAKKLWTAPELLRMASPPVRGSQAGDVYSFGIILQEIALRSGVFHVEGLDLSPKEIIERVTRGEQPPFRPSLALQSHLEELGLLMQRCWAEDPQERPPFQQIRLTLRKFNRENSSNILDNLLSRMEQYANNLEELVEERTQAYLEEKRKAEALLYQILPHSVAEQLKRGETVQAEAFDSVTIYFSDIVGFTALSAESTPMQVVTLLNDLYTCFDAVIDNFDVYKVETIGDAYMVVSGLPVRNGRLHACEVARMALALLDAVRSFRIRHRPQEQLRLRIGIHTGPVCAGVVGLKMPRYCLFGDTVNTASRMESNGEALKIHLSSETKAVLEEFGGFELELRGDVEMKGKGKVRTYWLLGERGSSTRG

[5] = target: T8, human NPR1 on CHO-K1 cells in the presence of ANP (human, UniProt P01160 124-151); experiment: flow cytometry, hNPR1 CHO-K1 cells, IgG
T8 construct: also called hNPR1 CHO K1 + 100 nM ANP
T8 sequence: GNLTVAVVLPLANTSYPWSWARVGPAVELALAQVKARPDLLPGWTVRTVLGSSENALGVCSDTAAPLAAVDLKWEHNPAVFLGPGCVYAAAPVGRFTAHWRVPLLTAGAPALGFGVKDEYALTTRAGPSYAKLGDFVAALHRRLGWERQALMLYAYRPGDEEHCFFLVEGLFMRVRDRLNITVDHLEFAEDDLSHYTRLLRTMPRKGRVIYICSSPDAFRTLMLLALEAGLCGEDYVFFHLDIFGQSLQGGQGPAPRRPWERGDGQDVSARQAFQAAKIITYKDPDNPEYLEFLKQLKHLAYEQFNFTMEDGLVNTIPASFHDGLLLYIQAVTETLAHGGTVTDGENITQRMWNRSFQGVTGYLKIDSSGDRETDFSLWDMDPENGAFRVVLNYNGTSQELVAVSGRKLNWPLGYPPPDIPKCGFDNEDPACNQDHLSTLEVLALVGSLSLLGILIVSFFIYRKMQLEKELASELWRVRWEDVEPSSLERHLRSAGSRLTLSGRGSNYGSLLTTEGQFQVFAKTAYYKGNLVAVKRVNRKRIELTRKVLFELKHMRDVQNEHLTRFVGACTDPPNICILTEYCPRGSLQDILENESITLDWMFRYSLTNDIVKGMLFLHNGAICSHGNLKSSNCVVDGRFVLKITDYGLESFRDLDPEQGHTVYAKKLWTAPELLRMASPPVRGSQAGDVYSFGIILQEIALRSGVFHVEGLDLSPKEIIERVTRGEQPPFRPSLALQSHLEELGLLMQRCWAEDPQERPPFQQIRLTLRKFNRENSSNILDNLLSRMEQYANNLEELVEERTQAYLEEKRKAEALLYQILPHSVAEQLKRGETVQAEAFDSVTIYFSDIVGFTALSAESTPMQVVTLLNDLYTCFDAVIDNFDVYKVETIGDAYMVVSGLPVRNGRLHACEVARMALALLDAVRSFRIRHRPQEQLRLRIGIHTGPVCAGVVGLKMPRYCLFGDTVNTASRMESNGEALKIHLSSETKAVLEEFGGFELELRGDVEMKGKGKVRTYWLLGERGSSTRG
T8 sequence (peptide): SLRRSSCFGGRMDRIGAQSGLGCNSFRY

[6] = target: constitutively active human NPR1 mutant (W74R) (human) (UniProt P16066); experiment: ELISA, IgG titrated on coated antigen, fluorescence [Cont.]
[7] = target: T7, human NPR1 on CHO-K1 cells; experiment: cell-based or functional assay
[8] = target: constitutively active human NPR1 mutant (W74R) (human) (UniProt P16066); experiment: ELISA, 1 µM IgG
[9] = target: W74R hNPR1 mutant in the presence of ANP (human) (UniProt P01160); experiment: ELISA, 1 µM IgG

B1: YY05 (IgG format) (antibody, V domains shown)
VH: EVQLVQSGAEVKKPGESLKISCKGSGYSFTSYWISWVRQMPGKGLEWMGIIYPGTSYTRYSPSFQGQVTISADKSISTAYLQWSSLKASDTAMYYCARGAVAGQLGFDHWGQGTLVTVSS
VL: QSVLTQPPSVSGAPGQRVTISCTGSSSNIGAGYDVHWYQQLPGTAPKLLIYGNSNRPSGVPDRFSGSKSGTSASLAITGLQAEDEADYYCQSYYTSSHGPVFGGGTKLTVLG
notes: also called YY05_LALA
- ELISA binding at 1 µM IgG [1]: 7
- ELISA binding at 1 µM IgG (rNPR1-ANP complex): 16
- ELISA binding at 1 µM IgG (hNPR1-ANP complex): 32
- ELISA binding at 1 µM IgG [2]: 4
- ELISA binding at 1 µM IgG [3]: 81
- ELISA binding at 1 µM IgG (rat NPR1 (rNPR1)): 11
- flow cytometry S/BG at 1 µM IgG [4]: 15 S/BG
- flow cytometry S/BG at 1 µM IgG [5]: 5 S/BG
- EC50 (read off the curve) [6]: 1 nM
- cGMP conc [nM] at 1 µM IgG, +0.075 nM ANP [7]: 15 nM
- cGMP conc [nM] at 1 µM IgG, without ANP [7]: 13 nM
- ELISA binding at 1 µM IgG [8]: 69
- ELISA binding at 1 µM IgG [9]: 23
